Data set [1] concerns the target SARS-CoV N protein (SARS-CoV, UniProt P59595 1-422). To be noted: protein: commercial, chain copies: 2.
For data set [2], the target named is T1, SARS-CoV-2 nucleocapsid (N) protein (SARS-CoV-2 (original/prototype), UniProt P0DTC9 1-419). Nature of the data set: SPR; single concentration. To be noted: protein: recombinant; tags: His; chain copies: 2. Background: In SPR one partner is held on a chip, and binding of the other changes the refractive index at the surface.
In data set [3] the target is T1, SARS-CoV-2 nucleocapsid (N) protein. Nature of the data set: ELONA. To be noted: protein: recombinant; tags: His; chain copies: 2; label: biotin (ELONA); 5'-FAM (flow cytometry, confocal). In general terms: In flow cytometry, cells or beads pass a laser one at a time.

These results are taken from paper PMC12886537, “Dual-mode aptamer-driven biosensing platform for ultrasensitive and mutation-resilient detection of the SARS-CoV-2 nucleocapsid protein”.

In general, Kd refers to the concentration at which binding is half-saturated.

TTTTTAACACGACTCTCCTGTGGCATTGCCTGTCGTGCCATG (structured_DNA) [NP14a]: the binding result in data set [1] is given as “binds”.

B1: NP11 (ssDNA)
DNA: TTTTTAAGCCCACTTTTCTGTGCCGGGCACAGCATGGGCTTGTCGTGCCATG
For the molecule B1, in data set [2], the binding result is given as “binds”.

B2: NP1 (ssDNA)
DNA: TTTTTAACACGACCTCACTGTGCCGGCCACAGCTCACCACAGTGGGCCCATG
Turning to B2, the binding result in data set [2] is given as “binds”.

B3: NP14 (structured_DNA)
DNA: TTTTTAACACGACTCTCCTGTGGCCAGCGAACTGATTGCCTGTCGTGCCATG
As to B3, the Kd came out at 3.45 nM in data set [1] (label: biotin (ELONA), 5'-FAM (flow cytometry, confocal)) and 3.68 nM in data set [3].

For the molecule TTTTTAACACGACTCTCCTGTGGCCAGCGAACTGATGTGCCATG (structured_DNA) [NP14b], the binding result in data set [1] is recorded as “binds”.
